Where two headings read alike, the source gives them in different places.
Experiments:
Assay in all cases: cell-based or functional assay
[1] = target: TSHR with Arg255 mutated to Asp expressed in CHO cells (human) (UniProt P16473)
[2] = target: TSHR with Glu61 mutated to Ala, expressed in CHO cells (human) (UniProt P16473)
[3] = target: TSHR with Glu251 mutated to Ala (human) (UniProt P16473)
[4] = target: TSHR with Arg255 mutated to Ala (human) (UniProt P16473)
[5] = target: TSHR with Lys183 mutated to Asp expressed in CHO cells (human) (UniProt P16473)
[6] = target: TSHR with Glu178 mutated to Ala expressed in CHO cells (human) (UniProt P16473)
[7] = target: TSHR with Thr257 mutated to Ala (human) (UniProt P16473)
[8] = target: TSHR with Ser281 mutated to Ala, expressed in CHO cells (human) (UniProt P16473)
[9] = target: TSHR with Ile60 mutated to Ala, expressed in CHO cells (human) (UniProt P16473)
[10] = target: TSHR with Lys209 mutated to Ala (expressed in CHO cells) (human) (UniProt P16473)
[11] = target: TSHR with Tyr82 mutated to Ala expressed in CHO cells (human) (UniProt P16473)
[12] = target: TSHR with Glu157 mutated to Ala, expressed in CHO cells (human) (UniProt P16473)

TSH (ligand)
Cyclic AMP produced (pmol/mL), TSH 0.01 ng/mL, Experiment 1 [1]: 2.59 pmol/mL | Cyclic AMP produced (pmol/mL), TSH 0.01 ng/mL, Experiment 2 [1]: 1.49 pmol/mL | Cyclic AMP produced (pmol/mL), TSH 0.01 ng/mL, Experiment 3 [1]: 6.46 pmol/mL | Cyclic AMP produced (pmol/mL), TSH 0.03 ng/mL, Experiment 1 [1]: 6.47 pmol/mL | Cyclic AMP produced (pmol/mL), TSH 0.03 ng/mL, Experiment 2 [1]: 2.81 pmol/mL | Cyclic AMP produced (pmol/mL), TSH 0.03 ng/mL, Experiment 3 [1]: 9.44 pmol/mL | Cyclic AMP produced (pmol/mL), TSH 0.1 ng/mL, Experiment 1 [1]: 19.2 pmol/mL | Cyclic AMP produced (pmol/mL), TSH 0.1 ng/mL, Experiment 2 [1]: 6.92 pmol/mL | Cyclic AMP produced (pmol/mL), TSH 0.1 ng/mL, Experiment 3 [1]: 22.7 pmol/mL | Cyclic AMP produced (pmol/mL), TSH 0.3 ng/mL, Experiment 1 [1]: 51.7 pmol/mL | Cyclic AMP produced (pmol/mL), TSH 0.3 ng/mL, Experiment 2 (duplicate determination) [1]: 21.2 pmol/mL | Cyclic AMP produced (pmol/mL), TSH 0.3 ng/mL, Experiment 3 [1]: 68.9 pmol/mL | Cyclic AMP produced (pmol/mL), TSH 1 ng/mL, Experiment 1 [1]: 68.6 pmol/mL | Cyclic AMP produced (pmol/mL), TSH 1 ng/mL, Experiment 2 [1]: 41.1 pmol/mL | Cyclic AMP produced (pmol/mL), TSH 1 ng/mL, Experiment 3 [1]: 154 pmol/mL | Cyclic AMP produced (pmol/mL), TSH 3 ng/mL, Experiment 1 [1]: 57.7 pmol/mL | Cyclic AMP produced (pmol/mL), TSH 3 ng/mL, Experiment 2 [1]: 52.4 pmol/mL | Cyclic AMP produced (pmol/mL), TSH 3 ng/mL, Experiment 3 [1]: 201 pmol/mL | Mutated/Wild type (%) of cyclic AMP produced, TSH 0.01 ng/mL, Experiment 1 [1]: 59% | Mutated/Wild type (%) of cyclic AMP produced, TSH 0.01 ng/mL, Experiment 2 [1]: 67% | Mutated/Wild type (%) of cyclic AMP produced, TSH 0.01 ng/mL, Experiment 3 [1]: 124% | Mutated/Wild type (%) of cyclic AMP produced, TSH 0.03 ng/mL, Experiment 1 [1]: 70% | Mutated/Wild type (%) of cyclic AMP produced, TSH 0.03 ng/mL, Experiment 2 [1]: 78% | Mutated/Wild type (%) of cyclic AMP produced, TSH 0.03 ng/mL, Experiment 3 [1]: 96% | Mutated/Wild type (%) of cyclic AMP produced, TSH 0.1 ng/mL, Experiment 1 [1]: 71% | Mutated/Wild type (%) of cyclic AMP produced, TSH 0.1 ng/mL, Experiment 2 [1]: 88% | Mutated/Wild type (%) of cyclic AMP produced, TSH 0.1 ng/mL, Experiment 3 [1]: 91% | Mutated/Wild type (%) of cyclic AMP produced, TSH 0.3 ng/mL, Experiment 1 [1]: 123% | Mutated/Wild type (%) of cyclic AMP produced, TSH 0.3 ng/mL, Experiment 2 [1]: 78% | Mutated/Wild type (%) of cyclic AMP produced, TSH 0.3 ng/mL, Experiment 3 [1]: 75% | Mutated/Wild type (%) of cyclic AMP produced, TSH 1 ng/mL, Experiment 1 [1]: 114% | Mutated/Wild type (%) of cyclic AMP produced, TSH 1 ng/mL, Experiment 2 [1]: 76% | Mutated/Wild type (%) of cyclic AMP produced, TSH 1 ng/mL, Experiment 3 [1]: 80% | Mutated/wild type (%) of cyclic AMP produced; TSH 3 ng/mL; Experiment 1 [1]: 94% | Mutated/wild type (%) of cyclic AMP produced; TSH 3 ng/mL; Experiment 2 [1]: 90% | % inhibition of TSH stimulation; TSH (2), run at the end of assay [2]: 17% | Mutated/Wild type (%) of cyclic AMP produced, TSH 0.01 ng/mL [2]: 470% | Mutated/Wild type (%) of cyclic AMP produced, TSH 0.03 ng/mL [2]: 369% | Mutated/Wild type (%) of cyclic AMP produced, TSH 0.1 ng/mL [2]: 271% | Mutated/Wild type (%) of cyclic AMP produced, TSH 0.3 ng/mL [2]: 188% | Mutated/Wild type (%) of cyclic AMP produced, TSH 1 ng/mL [2]: 129% | Mutated/wild type (%) of cyclic AMP produced; TSH 3 ng/mL [2]: 110% | Mutated/wild type (%) of cyclic AMP produced; TSH (2) 3 ng/mL, run at the end of assay [2]: 51% | Mutated/wild type (%) of cyclic AMP produced; TSH 3 ng/mL ([2]; record 2): 67% | Cyclic AMP produced (mean of duplicate), TSH 3 ng/mL [3]: 71.7 pmol/mL | Mutated/Wild type (%) of cyclic AMP produced, TSH 0.01 ng/mL [3]: 243% | Mutated/Wild type (%) of cyclic AMP produced, TSH 0.03 ng/mL [3]: 224% | Mutated/Wild type (%) of cyclic AMP produced, TSH 0.1 ng/mL [3]: 115% | Mutated/Wild type (%) of cyclic AMP produced, TSH 0.3 ng/mL [3]: 67% | Mutated/Wild type (%) of cyclic AMP produced, TSH 1 ng/mL [3]: 69% | Mutated/wild type (%) of cyclic AMP produced; TSH 3 ng/mL [3]: 66% | Mutated/Wild type (%) of cyclic AMP produced, TSH 0.01 ng/mL [4]: 161% | Mutated/Wild type (%) of cyclic AMP produced, TSH 0.03 ng/mL [4]: 141% | Mutated/Wild type (%) of cyclic AMP produced, TSH 0.1 ng/mL [4]: 126% | Mutated/Wild type (%) of cyclic AMP produced, TSH 0.3 ng/mL [4]: 101% | Mutated/Wild type (%) of cyclic AMP produced, TSH 1 ng/mL [4]: 90% | Mutated/wild type (%) of cyclic AMP produced; TSH 3 ng/mL [4]: 91% | Cyclic AMP produced (pmol/mL), mutated TSHR, TSH 0.01 ng/mL [5]: 4.08 pmol/mL | Cyclic AMP produced (pmol/mL), mutated TSHR, TSH 0.03 ng/mL [5]: 7.18 pmol/mL | Cyclic AMP produced (pmol/mL), mutated TSHR, TSH 0.1 ng/mL [5]: 19.1 pmol/mL | Cyclic AMP produced (pmol/mL), mutated TSHR, TSH 0.3 ng/mL [5]: 51.7 pmol/mL | Cyclic AMP produced (pmol/mL), mutated TSHR, TSH 1 ng/mL [5]: 93.3 pmol/mL | Cyclic AMP produced (pmol/mL), mutated TSHR, TSH 3 ng/mL [5]: 106 pmol/mL | Mutated/Wild type (%), TSH 0.01 ng/mL [5]: 165% | Mutated/Wild type (%), TSH 0.03 ng/mL [5]: 155% | Mutated/Wild type (%), TSH 0.1 ng/mL [5]: 109% | Mutated/Wild type (%), TSH 0.3 ng/mL [5]: 128% | Mutated/Wild type (%), TSH 1 ng/mL [5]: 101% | Mutated/Wild type (%), TSH 3 ng/mL [5]: 102% | Mutated/Wild type (%) of cyclic AMP produced, TSH 0.01 ng/mL [6]: 467% | Mutated/Wild type (%) of cyclic AMP produced, TSH 0.03 ng/mL [6]: 240% | Mutated/Wild type (%) of cyclic AMP produced, TSH 0.1 ng/mL [6]: 115% | Mutated/Wild type (%) of cyclic AMP produced, TSH 0.3 ng/mL [6]: 71% | Mutated/Wild type (%) of cyclic AMP produced, TSH 1 ng/mL [6]: 54% | Mutated/Wild type (%) of cyclic AMP produced, TSH 0.01 ng/mL [7]: 90% | Mutated/Wild type (%) of cyclic AMP produced, TSH 0.03 ng/mL [7]: 93% | Mutated/Wild type (%) of cyclic AMP produced, TSH 0.1 ng/mL [7]: 92% | Mutated/Wild type (%) of cyclic AMP produced, TSH 0.3 ng/mL [7]: 105% | Mutated/Wild type (%) of cyclic AMP produced, TSH 1 ng/mL [7]: 94% | Mutated/wild type (%) of cyclic AMP produced; TSH 3 ng/mL [7]: 86% | % inhibition of TSH stimulation; TSH (2) (run at the end of assay, against the first TSH sample); Experiment 1 [8]: 19% | % inhibition of TSH stimulation; TSH (2) (run at the end of assay, against the first TSH sample); Experiment 2 [8]: 4% | Cyclic AMP produced (pmol/mL), TSH 0.01 ng/mL, mutated TSHR [8]: 2.84 pmol/mL | Cyclic AMP produced (pmol/mL), TSH 0.03 ng/mL, mutated TSHR [8]: 4.69 pmol/mL | Cyclic AMP produced (pmol/mL), TSH 0.1 ng/mL, mutated TSHR [8]: 11.3 pmol/mL | Cyclic AMP produced (pmol/mL), TSH 0.3 ng/mL, mutated TSHR [8]: 27.5 pmol/mL | Cyclic AMP produced (pmol/mL), TSH 1 ng/mL, mutated TSHR [8]: 51.6 pmol/mL | Cyclic AMP produced (pmol/mL), TSH 3 ng/mL, mutated TSHR [8]: 68 pmol/mL | Mutated/Wild type (%), TSH 0.01 ng/mL [8]: 140% | Mutated/Wild type (%), TSH 0.03 ng/mL [8]: 128% | Mutated/Wild type (%), TSH 0.1 ng/mL [8]: 117% | Mutated/Wild type (%), TSH 0.3 ng/mL [8]: 88% | Mutated/Wild type (%), TSH 1 ng/mL [8]: 85% | Mutated/Wild type (%), TSH 3 ng/mL [8]: 82% | Mutated/wild type (%) of cyclic AMP produced; test sample TSH (3 ng/mL); Experiment 1 [8]: 79% | Mutated/wild type (%) of cyclic AMP produced; test sample TSH (3 ng/mL); Experiment 2 [8]: 92% | Mutated/wild type (%) of cyclic AMP produced; test sample TSH (2) (3 ng/mL, run at the end of assay); Experiment 1 [8]: 57% | Mutated/wild type (%) of cyclic AMP produced; test sample TSH (2) (3 ng/mL, run at the end of assay); Experiment 2 [8]: 79% | % inhibition of TSH stimulation; TSH (2), run at the end of assay; Experiment 1 [9]: 12% | % inhibition of TSH stimulation; TSH (2), run at the end of assay; Experiment 2 [9]: 13% | Mutated/Wild type (%) of cyclic AMP produced, TSH 0.01 ng/mL [9]: 358% | Mutated/Wild type (%) of cyclic AMP produced, TSH 0.03 ng/mL [9]: 178% | Mutated/Wild type (%) of cyclic AMP produced, TSH 0.1 ng/mL [9]: 201% | Mutated/Wild type (%) of cyclic AMP produced, TSH 0.3 ng/mL [9]: 96% | Mutated/Wild type (%) of cyclic AMP produced, TSH 1 ng/mL [9]: 77% | Mutated/wild type (%) of cyclic AMP produced; TSH 3 ng/mL [9]: 83% | Mutated/wild type (%) of cyclic AMP produced; TSH 3 ng/mL; Experiment 1 [9]: 57% | Mutated/wild type (%) of cyclic AMP produced; TSH 3 ng/mL; Experiment 2 [9]: 81% | Mutated/wild type (%) of cyclic AMP produced; TSH (2) 3 ng/mL, run at the end of assay; Experiment 1 [9]: 54% | Mutated/wild type (%) of cyclic AMP produced; TSH (2) 3 ng/mL, run at the end of assay; Experiment 2 [9]: 69% | Mutated/Wild type (%) of cyclic AMP produced, TSH 0.01 ng/mL [10]: 171% | Mutated/Wild type (%) of cyclic AMP produced, TSH 0.03 ng/mL [10]: 128% | Mutated/Wild type (%) of cyclic AMP produced, TSH 0.1 ng/mL [10]: 65% | Mutated/Wild type (%) of cyclic AMP produced, TSH 0.3 ng/mL [10]: 64% | Mutated/Wild type (%) of cyclic AMP produced, TSH 1 ng/mL [10]: 45% | % inhibition of TSH stimulation; TSH (2); Experiment 1 [11]: 44% | % inhibition of TSH stimulation; TSH (2); Experiment 2 [11]: 22% | Cyclic AMP produced; TSH 3 ng/mL; Experiment 1 [11]: 166 pmol/mL | Cyclic AMP produced; TSH 3 ng/mL; Experiment 2 [11]: 74.6 pmol/mL | Cyclic AMP produced; TSH (2); Experiment 1 [11]: 92.3 pmol/mL | Cyclic AMP produced; TSH (2); Experiment 2 [11]: 57.9 pmol/mL | Mutated/wild type (%) of cyclic AMP produced; TSH 3 ng/mL; Experiment 1 [11]: 108% | Mutated/wild type (%) of cyclic AMP produced; TSH 3 ng/mL; Experiment 2 [11]: 125% | Mutated/wild type (%) of cyclic AMP produced; TSH (2); Experiment 1 [11]: 58% | Mutated/wild type (%) of cyclic AMP produced; TSH (2); Experiment 2 [11]: 94% | Mutated/Wild type (%) of cyclic AMP produced, TSH 0.01 ng/mL [12]: 450% | Mutated/Wild type (%) of cyclic AMP produced, TSH 0.03 ng/mL [12]: 328% | Mutated/Wild type (%) of cyclic AMP produced, TSH 0.1 ng/mL [12]: 164% | Mutated/Wild type (%) of cyclic AMP produced, TSH 0.3 ng/mL [12]: 118% | Mutated/Wild type (%) of cyclic AMP produced, TSH 1 ng/mL [12]: 86% | Mutated/wild type (%) of cyclic AMP produced; TSH 3 ng/mL [12]: 115%
